# Laboratory results published in patent US20150152171, “Modulation of TLR4-Signaling Pathway” (Rheinisch-Westfalische Technische, published 2015).
# Biological target: hnRNP K full-length (463 aa) (UniProt P61978 P61978:1-463)
# Assay: competition; 2R competes hnRNP K binding to TAK1 fragments 3, 5.1 and Akt2 fragments 1, 2
# Conditions: tags: His
# Procedure: To analyze whether recombinant hnRNP K directly interacts with the Akt2 mRNA 3′UTR, UV-crosslinking experiments were performed with the [³²P]-labeled Akt2 mRNA 3′UTR subdivided in two fragments (1 and 2) (FIG. 19, lanes 1-5 and 6-10). Recombinant hnRNP K was bound strongly to both fragments (FIG. 19, lanes 1 and 6) and to the DICE, but not to the TAK1 mRNA 3′UTR fragment 4 that served as negative control (FIG. 19, lanes 11 and 12). Furthermore, it was investigated whether the short RNA consisting of 2 repeats of the DICE (2R) can be used to compete the binding of hnRNP K to the Akt2 mRNA 3′UTR fragments 1 and 2.
binder,measurement,value
"CCCCACCCUCUUCCCCAAGCCCCACCCUCUUCCCCAAG (ssRNA) [2R (two DICE repeats, 38 nt)]",binding result,binds
